Reference: the supplement of paper PMC5998384

How the values were obtained:
[1] = system: HeLa Kyoto; assay: thermal stability score vs G1/S (z-score of summed log2 fold changes over temperatures); higher = more thermally stable than in G1/S
[2] = system: HeLa Kyoto; assay: solubility change mitosis vs G1/S (difference of NP-40 vs SDS log2 ratios) (log2 ratio difference); higher = more soluble in mitosis
[3] = system: HeLa Kyoto; assay: melting temperature (median over replicates), in situ; higher = more thermally stable
[4] = system: HeLa Kyoto; assay: solubility in G1/S (NP-40 vs SDS abundance) (log2 ratio); higher = more soluble; conditions: cell cycle stage: G1/S
[5] = cell cycle stage: early G1 (4.5 h after nocodazole release)
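For melting temperature (median over replicates), in situ in this document: HeLa Kyoto cells synchronized by double thymidine or nocodazole block, proteins quantified by TMT10plex mass spectrometry, three independent biological replicates.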
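For solubility change mitosis vs G1/S (difference of NP-40 vs SDS log2 ratios) in this document: synchronized HeLa Kyoto cells (double thymidine block for G1/S, nocodazole release for mitosis), protein amounts in NP-40 versus SDS lysates quantified by mass spectrometry, three biological replicates.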
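For solubility in G1/S (NP-40 vs SDS abundance) in this document: HeLa Kyoto cells arrested at G1/S by double thymidine block, proteins quantified by TMT10plex mass spectrometry in mild NP-40 versus SDS extracts, three biological replicates.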
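For thermal stability score vs G1/S (z-score of summed log2 fold changes over temperatures) in this document: synchronized HeLa Kyoto cells, proteins quantified by TMT10plex mass spectrometry, three biological replicates, mitosis taken 0.5 h after nocodazole release, G1/S directly after double thymidine block.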

Sequence of PHF23 (chain, as listed by the source): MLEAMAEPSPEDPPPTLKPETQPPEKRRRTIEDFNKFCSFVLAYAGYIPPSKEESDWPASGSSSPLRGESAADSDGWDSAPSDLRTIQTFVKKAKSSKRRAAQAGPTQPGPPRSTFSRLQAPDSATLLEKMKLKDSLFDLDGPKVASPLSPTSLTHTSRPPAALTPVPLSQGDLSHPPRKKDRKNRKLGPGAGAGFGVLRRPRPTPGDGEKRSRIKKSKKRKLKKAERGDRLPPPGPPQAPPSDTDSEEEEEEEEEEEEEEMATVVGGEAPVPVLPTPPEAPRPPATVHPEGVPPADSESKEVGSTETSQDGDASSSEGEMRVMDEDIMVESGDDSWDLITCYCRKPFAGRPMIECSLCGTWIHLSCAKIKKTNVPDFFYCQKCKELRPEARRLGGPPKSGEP
Sequence of WNK1 (chain, as listed by the source): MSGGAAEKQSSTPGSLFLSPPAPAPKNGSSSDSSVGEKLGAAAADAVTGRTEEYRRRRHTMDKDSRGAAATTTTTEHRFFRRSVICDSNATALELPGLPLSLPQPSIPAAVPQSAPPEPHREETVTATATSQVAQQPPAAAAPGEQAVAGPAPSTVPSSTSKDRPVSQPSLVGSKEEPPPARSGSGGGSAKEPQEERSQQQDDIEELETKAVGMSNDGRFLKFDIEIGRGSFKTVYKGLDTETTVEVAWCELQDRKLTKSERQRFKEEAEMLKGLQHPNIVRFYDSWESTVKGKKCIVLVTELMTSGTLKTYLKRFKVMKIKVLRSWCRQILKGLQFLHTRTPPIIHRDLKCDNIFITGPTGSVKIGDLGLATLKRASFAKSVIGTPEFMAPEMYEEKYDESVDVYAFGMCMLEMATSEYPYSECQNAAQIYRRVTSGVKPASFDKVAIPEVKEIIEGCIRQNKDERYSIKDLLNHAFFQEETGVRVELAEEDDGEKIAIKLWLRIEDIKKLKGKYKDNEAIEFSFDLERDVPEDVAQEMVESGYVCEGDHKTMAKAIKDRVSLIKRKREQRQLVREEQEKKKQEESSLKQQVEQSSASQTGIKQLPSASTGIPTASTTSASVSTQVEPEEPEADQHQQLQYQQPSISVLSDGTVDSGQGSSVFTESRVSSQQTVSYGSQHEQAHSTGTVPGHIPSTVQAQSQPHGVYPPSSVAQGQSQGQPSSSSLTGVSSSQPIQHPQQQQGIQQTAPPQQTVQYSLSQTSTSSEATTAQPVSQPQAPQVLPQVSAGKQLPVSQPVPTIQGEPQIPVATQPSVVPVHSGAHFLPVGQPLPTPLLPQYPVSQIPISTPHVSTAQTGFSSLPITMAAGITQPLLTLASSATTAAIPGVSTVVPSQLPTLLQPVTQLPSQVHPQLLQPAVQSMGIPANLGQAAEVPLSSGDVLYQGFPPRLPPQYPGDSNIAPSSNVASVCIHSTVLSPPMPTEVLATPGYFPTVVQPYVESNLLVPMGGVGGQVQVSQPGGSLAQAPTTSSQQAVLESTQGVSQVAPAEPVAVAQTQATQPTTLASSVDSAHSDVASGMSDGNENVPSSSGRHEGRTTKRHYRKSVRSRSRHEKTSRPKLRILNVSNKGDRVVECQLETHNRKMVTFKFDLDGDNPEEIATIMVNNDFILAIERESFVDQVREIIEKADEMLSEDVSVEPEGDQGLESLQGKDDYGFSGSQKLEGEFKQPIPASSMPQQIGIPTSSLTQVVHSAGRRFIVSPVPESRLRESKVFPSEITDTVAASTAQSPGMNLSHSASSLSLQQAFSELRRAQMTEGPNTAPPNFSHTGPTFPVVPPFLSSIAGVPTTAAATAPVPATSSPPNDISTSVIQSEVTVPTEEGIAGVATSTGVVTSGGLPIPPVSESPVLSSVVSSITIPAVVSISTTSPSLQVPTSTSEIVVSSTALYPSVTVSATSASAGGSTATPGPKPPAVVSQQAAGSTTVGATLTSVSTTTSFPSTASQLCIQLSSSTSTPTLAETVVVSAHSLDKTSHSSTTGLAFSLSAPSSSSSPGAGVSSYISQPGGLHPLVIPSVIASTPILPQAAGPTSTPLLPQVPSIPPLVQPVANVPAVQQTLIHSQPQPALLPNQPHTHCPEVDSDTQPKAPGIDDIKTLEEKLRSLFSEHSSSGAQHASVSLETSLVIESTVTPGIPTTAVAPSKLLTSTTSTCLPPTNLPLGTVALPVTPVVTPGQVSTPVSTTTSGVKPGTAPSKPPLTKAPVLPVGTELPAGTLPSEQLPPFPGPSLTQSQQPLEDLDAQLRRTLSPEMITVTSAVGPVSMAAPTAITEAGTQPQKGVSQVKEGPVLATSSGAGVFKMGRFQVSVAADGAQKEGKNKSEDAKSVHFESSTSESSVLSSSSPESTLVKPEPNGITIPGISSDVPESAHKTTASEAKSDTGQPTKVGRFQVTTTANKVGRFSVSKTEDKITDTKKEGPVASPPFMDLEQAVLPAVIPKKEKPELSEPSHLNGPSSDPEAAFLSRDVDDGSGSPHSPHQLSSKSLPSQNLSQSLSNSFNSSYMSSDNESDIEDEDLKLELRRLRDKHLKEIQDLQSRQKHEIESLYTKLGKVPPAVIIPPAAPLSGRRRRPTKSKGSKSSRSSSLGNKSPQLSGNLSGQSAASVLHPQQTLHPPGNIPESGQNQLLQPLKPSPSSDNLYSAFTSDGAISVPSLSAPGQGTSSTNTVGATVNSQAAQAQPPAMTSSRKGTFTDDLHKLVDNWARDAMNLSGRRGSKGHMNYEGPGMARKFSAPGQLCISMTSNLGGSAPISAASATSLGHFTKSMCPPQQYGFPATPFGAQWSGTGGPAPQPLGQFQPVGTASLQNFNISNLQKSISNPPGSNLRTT

Row | Substance | thermal stability score [1, 5] | thermal stability score ([1]; cell cycle stage: mitosis) | solubility change mitosis (log2) [2] | melting temperature ([3]; cell cycle stage: G1/S) | melting temperature ([3]; cell cycle stage: mitosis) | solubility in G1/S (log2) [4]
1 | MAQTVQNVTLSLTLPITCHICLGKVRQPVICINNHVFCSICIDLWLKNNSQCPACRVPITPENPCKEIIGGTSESEPMLSHTVRKHLRKTRLELLHKEYEDEIDCLQKEVEELKSKNLSLESQIKTILDPLTLVQGNQNEDKHLVTDNPSKINPETVAEWKKKLRTANEIYEKVKDDVDKLKEANKKLKLENGGLVRENLRLKAEVDNRSPQKFGRFAVAALQSKVEQYERETNRLKKALERSDKYIEELESQVAQLKNSSEEKEAMNSICQTALSADGKGSKGSEEDVVSKNQGDSARKQPGSSTSSSSHLAKPSSSRLCDTSSARQESTSKADLNCSKNKDLYQEQVEVMLDVTDTSMDTYLEREWGNKPSDCVPYKDEELYDLPAPCTPLSLSCLQLSTPENRESSVVQAGGSKKHSNHLRKLVFDDFCDSSNVSNKDSSEDDISRSENEKKSECFSSPKTGFWDCCSTSYAQNLDFESSEGNTIANSVGEISSKLSEKSGLCLSKRLNSIRSFEMNRTRTSSEASMDAAYLDKISELDSMMSESDNSKSPCNNGFKSLDLDGLSKSSQGSEFLEEPDKLEEKTELNLSKGSLTNDQLENGSEWKPTSFFLLSPSDQEMNEDFSLHSSSCPVTNEIKPPSCLFQTEFSQGILLSSSHRLFEDQRFGSSLFKMSSEMHSLHNHLQSPWSTSFVPEKRNKNVNQSTKRKIQSSLSSASPSKATKS [RNF219] | 0.213 | 2.43 | -0.0524 | 46.5 °C | 49.3 °C | -0.0524
2 | MSSDASQGVITTPPPPSMPHKERYFDRINENDPEYIRERNMSPDLRQDFNMMEQRKRVTQILQSPAFREDLECLIQEQMKKGHNPTGLLALQQIADYIMANSFSGFSSPPLSLGMVTPINDLPGADTSSYVKGEKLTRCKLASLYRLVDLFGWAHLANTYISVRISKEQDHIIIIPRGLSFSEATASNLVKVNIIGEVVDQGSTNLKIDHTGFSPHAAIYSTRPDVKCVIHIHTLATAAVSSMKCGILPISQESLLLGDVAYYDYQGSLEEQEERIQLQKVLGPSCKVLVLRNHGVVALGETLEEAFHYIFNVQLACEIQVQALAGAGGVDNLHVLDFQKYKAFTYTVAASGGGGVNMGSHQKWKVGEIEFEGLMRTLDNLGYRTGYAYRHPLIREKPRHKSDVEIPATVTAFSFEDDTVPLSPLKYMAQRQQREKTRWLNSPNTYMKVNVPEESRNGETSPRTKITWMKAEDSSKVSGGTPIKIEDPNQFVPLNTNPNEVLEKRNKIREQNRYDLKTAGPQSQLLAGIVVDKPPSTMQFEDDDHGPPAPPNPFSHLTEGELEEYKRTIERKQQGLEDAEQELLSDDASSVSQIQSQTQSPQNVPEKLEENHELFSKSFISMEVPVMVVNGKDDMHDVEDELAKRVSRLSTSTTIENIEITIKSPEKIEEVLSPEGSPSKSPSKKKKKFRTPSFLKKNKKKEKVEA [ADD3] | -4.93 | -3.64 | 0.481 | 55.9 °C | 55.5 °C | -0.181
3 | MAAAALGSSSGSASPAVAELCQNTPETFLEASKLLLTYADNILRNPNDEKYRSIRIGNTAFSTRLLPVRGAVECLFEMGFEEGETHLIFPKKASVEQLQKIRDLIAIERSSRLDGSNKSHKVKSSQQPAASTQLPTTPSSNPSGLNQHTRNRQGQSSDPPSASTVAADSAILEVLQSNIQHVLVYENPALQEKALACIPVQELKRKSQEKLSRARKLDKGINISDEDFLLLELLHWFKEEFFHWVNNVLCSKCGGQTRSRDRSLLPSDDELKWGAKEVEDHYCDACQFSNRFPRYNNPEKLLETRCGRCGEWANCFTLCCRAVGFEARYVWDYTDHVWTEVYSPSQQRWLHCDACEDVCDKPLLYEIGWGKKLSYVIAFSKDEVVDVTWRYSCKHEEVIARRTKVKEALLRDTINGLNKQRQLFLSENRRKELLQRIIVELVEFISPKTPKPGELGGRISGSVAWRVARGEMGLQRKETLFIPCENEKISKQLHLCYNIVKDRYVRVSNNNQTISGWENGVWKMESIFRKVETDWHMVYLARKEGSSFAYISWKFECGSVGLKVDSISIRTSSQTFQTGTVEWKLRSDTAQVELTGDNSLHSYADFSGATEVILEAELSRGDGDVAWQHTQLFRQSLNDHEENCLEIIIKFSDL [NGLY1] | -0.157 | -0.401 | -0.0564 | 57.5 °C | 50.3 °C | -0.124
4 | PHF23 | -0.742 | 0.2 | 0.0233 | 51.1 °C | 53.2 °C | 0.107
5 | MSSKGSVVLAYSGGLDTSCILVWLKEQGYDVIAYLANIGQKEDFEEARKKALKLGAKKVFIEDVSREFVEEFIWPAIQSSALYEDRYLLGTSLARPCIARKQVEIAQREGAKYVSHGATGKGNDQVRFELSCYSLAPQIKVIAPWRMPEFYNRFKGRNDLMEYAKQHGIPIPVTPKNPWSMDENLMHISYEAGILENPKNQAPPGLYTKTQDPAKAPNTPDILEIEFKKGVPVKVTNVKDGTTHQTSLELFMYLNEVAGKHGVGRIDIVENRFIGMKSRGIYETPAGTILYHAHLDIEAFTMDREVRKIKQGLGLKFAELVYTGFWHSPECEFVRHCIAKSQERVEGKVQVSVLKGQVYILGRESPLSLYNEELVSMNVQGDYEPTDATGFININSLRLKEYHRLQSKVTAK [ASS1] | -0.511 | -0.833 | -0.0958 | 54.3 °C | 54.1 °C | 0.145
6 | MTPPPPPPPPPGPDPAADPAADPCPWPGSLVVLFGATAGALGRDLGSDETDLILLVWQVVEPRSRQVGTLHKSLVRAEAAALSTQCREASGLSADSLARAEPLDKVLQQFSQLVNGDVALLGGGPYMLCTDGQQLLRQVLHPEASRKNLVLPDMFFSFYDLRREFHMQHPSTCPARDLTVATMAQGLGLETDATEDDFGVWEVKTMVAVILHLLKEPSSQLFSKPEVIKQKYETGPCSDSTVPCPYSSKADVVDSETVVRARGLPWQSSDQDVARFFKGLNVARGGVALCLNAQGRRNGEALIRFVDSEQRDLALQRHKHHMGVRYIEVYKATGEEFVKIAGGTSLEVARFLSREDQVILRLRGLPFSAGPTDVLGFLGPECPVTGGTEGLLFVRHPDGRPTGDAFALFACEELAQAALRRHKGMLGKRYIELFRSTAAEVQQVLNRYASGPLLPTLTAPLLPIPFPLAPGTGRDCVRLRGLPYTATIEDILSFLGEAAADIRPHGVHMVLNQQGRPSGDAFIQMTSAERALAAAQRCHKKVMKERYVEVVPCSTEEMSRVLMGGTLGRSGMSPPPCKLPCLSPPTYTTFQATPTLIPTETAALYPSSALLPAARVPAAPTPVAYYPGPATQLYLNYTAYYPSPPVSPTTVGYLTTPTAALASAPTSVLSQSGALVRMQGVPYTAGMKDLLSVFQAYQLPADDYTSLMPVGDPPRTVLQAPKEWVCL [ESRP2] | 1.55 | 2.39 | 0.0705 | 45.2 °C | 47.7 °C | 0.0652
7 | MAGPELLLDSNIRLWVVLPIVIITFFVGMIRHYVSILLQSDKKLTQEQVSDSQVLIRSRVLRENGKYIPKQSFLTRKYYFNNPEDGFFKKTKRKVVPPSPMTDPTMLTDMMKGNVTNVLPMILIGGWINMTFSGFVTTKVPFPLTLRFKPMLQQGIELLTLDASWVSSASWYFLNVFGLRSIYSLILGQDNAADQSRMMQEQMTGAAMAMPADTNKAFKTEWEALELTDHQWALDDVEEELMAKDLHFEGMFKKELQTSIF [EMC3] | -0.437 | -0.599 | -0.25 | 54.1 °C | 53.7 °C | -0.174
8 | MPSKFSCRQLREAGQCFESFLVVRGLDMETDRERLRTIYNRDFKISFGTPAPGFSSMLYGMKIANLAYVTKTRVRFFRLDRWADVRFPEKRRMKLGSDISKHHKSLLAKIFYDRAEYLHGKHGVDVEVQGPHEARDGQLLIRLDLNRKEVLTLRLRNGGTQSVTLTHLFPLCRTPQFAFYNEDQELPCPLGPGECYELHVHCKTSFVGYFPATVLWELLGPGESGSEGAGTFYIARFLAAVAHSPLAAQLKPMTPFKRTRITGNPVVTNRIEEGERPDRAKGYDLELSMALGTYYPPPRLRQLLPMLLQGTSIFTAPKEIAEIKAQLETALKWRNYEVKLRLLLHLEELQMEHDIRHYDLESVPMTWDPVDQNPRLLTLEVPGVTESRPSVLRGDHLFALLSSETHQEDPITYKGFVHKVELDRVKLSFSMSLLSRFVDGLTFKVNFTFNRQPLRVQHRALELTGRWLLWPMLFPVAPRDVPLLPSDVKLKLYDRSLESNPEQLQAMRHIVTGTTRPAPYIIFGPPGTGKTVTLVEAIKQVVKHLPKAHILACAPSNSGADLLCQRLRVHLPSSIYRLLAPSRDIRMVPEDIKPCCNWDAKKGEYVFPAKKKLQEYRVLITTLITAGRLVSAQFPIDHFTHIFIDEAGHCMEPESLVAIAGLMEVKETGDPGGQLVLAGDPRQLGPVLRSPLTQKHGLGYSLLERLLTYNSLYKKGPDGYDPQFITKLLRNYRSHPTILDIPNQLYYEGELQACADVVDRERFCRWAGLPRQGFPIIFHGVMGKDEREGNSPSFFNPEEAATVTSYLKLLLAPSSKKGKARLSPRSVGVISPYRKQVEKIRYCITKLDRELRGLDDIKDLKVGSVEEFQGQERSVILISTVRSSQSFVQLDLDFNLGFLKNPKRFNVAVTRAKALLIIVGNPLLLGHDPDWKVFLEFCKENGGYTGCPFPAKLDLQQGQNLLQGLSKLSPSTSGPHSHDYLPQEREGEGGLSLQVEPEWRNEL [MOV10] | -0.801 | -2.06 | -0.141 | 52.9 °C | 51.1 °C | -0.355
9 | MGKKSRAVPGRRPILQLSPPGPRGSTPGRDPEPEPDTEPDSTAAVPSQPAPSAATTTTTAVTAAAASDDSPSEDEQEAVQEVPRVVQNPPKPVMTTRPTAVKATGGLCLLGAYADSDDDDNDVSEKLAQSKETNGNQSTDIDSTLANFLAEIDAITAPQPAAPVGASAPPPTPPRPEPKEAATSTLSSSTSNGTDSTQTSGWQYDTQCSLAGVGIEMGDWQEVWDENTGCYYYWNTQTNEVTWELPQYLATQVQGLQHYQPSSVPGAETSFVVNTDIYSKEKTISVSSSKSGPVIAKREVKKEVNEGIQALSNSEEEKKGVAASLLAPLLPEGIKEEEERWRRKVICKEEPVSEVKETSTTVEEATTIVKPQEIMLDNIEDPSQEDLCSVVQSGESEEEEEQDTLELELVLERKKAELRALEEGDGSVSGSSPRSDISQPASQDGMRRLMSKRGKWKMFVRATSPESTSRSSSKTGRDTPENGETAIGAENSEKIDENSDKEMEVEESPEKIKVQTTPKVEEEQDLKFQIGELANTLTSKFEFLGINRQSISNFHVLLLQTETRIADWREGALNGNYLKRKLQDAAEQLKQYEINATPKGWSCHWDRDHRRYFYVNEQSGESQWEFPDGEEEEEESQAQENRDETLAKQTLKDKTGTDSNSTESSETSTGSLCKESFSGQVSSSSLMPLTPFWTLLQSNVPVLQPPLPLEMPPPPPPPPESPPPPPPPPPPAEDGEIQEVEMEDEGSEEPPAPGTEEDTPLKPSAQTTVVTSQSSVDSTISSSSSTKGIKRKATEISTAVVQRSATIGSSPVLYSQSAIATGHQAAGIGNQATGIGHQTIPVSLPAAGMGHQARGMSLQSNYLGLAAAPAIMSYAECSVPIGVTAPSLQPVQARGAVPTATIIEPPPPPPPPPPPPPPAPKMPPPEKTKKGRKDKAKKSKTKMPSLVKKWQSIQRELDEEDNSSSSEEDRESTAQKRIEEWKQQQLVSGMAERNANFEALPEDWRARLKRRKMAPNT [FNBP4] | -4.32 | -4.84 | 0.168 | 62.5 °C | 62.1 °C | -0.323
10 | WNK1 | 1.74 | 3.55 | -0.164 | 51.9 °C | 52.2 °C | 0.0681
